Measured values reported in patent publication US20160207974A1 (published 2016).
Blank lines part the entries; values can stand above or below the binder they belong to.

Biological target: T1, monkey serum albumin (monkey)
T1 construct: also called Monkey SA
Assay: SPR (BioRad ProteOn XPR36), albumin amine-coupled to GLC chip, analyte from 5 nM in 3-fold dilutions, 25 C
Method: All studies were conducted on a BioRad ProteOn XPR36 system using a GLC sensor chip at 25 degrees C. For amine coupling the GLC chip was activated for 5 minutes using a 1:1 mixture of sulfo-NHS/EDC diluted 30-fold from the initial stock in water as shown below. Each albumin sample was diluted to 25 ug/ml in 10 mM Na Acetate pH 5.0 and injected for 5 minutes over separate sensor surfaces. Each surface was then blocked with 1 M ethanolamine pH 8.5. Each albumin was coupled at a density of 2000-5000 in resonance units.
The binding of an engineered polypeptide was tested using 5 nM as the highest concentration in a three-fold dilution series. The running buffer contained 10 mM HEPES pH 7.4, 150 mM NaCl, 3 mM EDTA and 0.005% tween-20. All samples were tested using a 3-fold dilution series. Each concentration series was tested in duplicate. The dissociation phase for the highest concentration […] was monitored for 3 hours.

T1 sequence (Q28522 17-600): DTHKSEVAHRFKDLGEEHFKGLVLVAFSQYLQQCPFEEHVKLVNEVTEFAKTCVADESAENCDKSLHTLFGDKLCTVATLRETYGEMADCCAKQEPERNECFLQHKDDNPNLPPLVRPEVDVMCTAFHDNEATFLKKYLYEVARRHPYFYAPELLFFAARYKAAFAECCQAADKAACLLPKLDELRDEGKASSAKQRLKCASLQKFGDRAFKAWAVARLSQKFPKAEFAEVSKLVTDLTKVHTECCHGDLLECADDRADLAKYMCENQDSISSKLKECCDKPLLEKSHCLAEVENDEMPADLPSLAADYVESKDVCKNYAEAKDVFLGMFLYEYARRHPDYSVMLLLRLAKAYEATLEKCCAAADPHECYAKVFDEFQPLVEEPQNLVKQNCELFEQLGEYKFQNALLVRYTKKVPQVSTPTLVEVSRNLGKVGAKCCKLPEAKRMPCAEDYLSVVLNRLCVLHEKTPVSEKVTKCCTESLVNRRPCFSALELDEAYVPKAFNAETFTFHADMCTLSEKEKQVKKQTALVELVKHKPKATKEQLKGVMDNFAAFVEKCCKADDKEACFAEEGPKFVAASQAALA

Kd: 405 pM
B1: PEP07986-neutral linker-A500 (Compound 2) (other)
chain: MGSLAEAKEAANAELDSYGVSDFYKRLIDKAKTVEGVEALKDAILAALPTGGGGSGGGSGGGSGGGSASVPIQKVQDDTKTLIKTIVTRINDISHTQSVSSKQKVTGLEFIPGLHPILTLSKMDQTLAVYQQILTSMPSRNVIQISNDLENLRDLLHVLAFSKSCHLPQASGLETLESLGGVLEASGYSTEVVALSRLQGSLQDMLQQLDLSPGC
notes: also called Cmpd 2; PEP07986-Neutral-A500

Kd: 400 pM
B2: PEP07986-negative linker-A500 (Compound 12) (other)
chain: MGSLAEAKEAANAELDSYGVSDFYKRLIDKAKTVEGVEALKDAILAALPTGGEGGEGGEGGEGGEGGEASVPIQKVQDDTKTLIKTIVTRINDISHTQSVSSKQKVTGLEFIPGLHPILTLSKMDQTLAVYQQILTSMPSRNVIQISNDLENLRDLLHVLAFSKSCHLPQASGLETLESLGGVLEASGYSTEVVALSRLQGSLQDMLQQLDLSPGC
notes: also called Cmpd 12; PEP07986-Negative-A500
